The source of these data is publication PMC7610691 (Nature structural & molecular biology, 2020).

The target in this assay is T1, Smc2 (S. cerevisiae condensin subunit) (S. cerevisiae, UniProt P38989 1-1170).
T1 sequence: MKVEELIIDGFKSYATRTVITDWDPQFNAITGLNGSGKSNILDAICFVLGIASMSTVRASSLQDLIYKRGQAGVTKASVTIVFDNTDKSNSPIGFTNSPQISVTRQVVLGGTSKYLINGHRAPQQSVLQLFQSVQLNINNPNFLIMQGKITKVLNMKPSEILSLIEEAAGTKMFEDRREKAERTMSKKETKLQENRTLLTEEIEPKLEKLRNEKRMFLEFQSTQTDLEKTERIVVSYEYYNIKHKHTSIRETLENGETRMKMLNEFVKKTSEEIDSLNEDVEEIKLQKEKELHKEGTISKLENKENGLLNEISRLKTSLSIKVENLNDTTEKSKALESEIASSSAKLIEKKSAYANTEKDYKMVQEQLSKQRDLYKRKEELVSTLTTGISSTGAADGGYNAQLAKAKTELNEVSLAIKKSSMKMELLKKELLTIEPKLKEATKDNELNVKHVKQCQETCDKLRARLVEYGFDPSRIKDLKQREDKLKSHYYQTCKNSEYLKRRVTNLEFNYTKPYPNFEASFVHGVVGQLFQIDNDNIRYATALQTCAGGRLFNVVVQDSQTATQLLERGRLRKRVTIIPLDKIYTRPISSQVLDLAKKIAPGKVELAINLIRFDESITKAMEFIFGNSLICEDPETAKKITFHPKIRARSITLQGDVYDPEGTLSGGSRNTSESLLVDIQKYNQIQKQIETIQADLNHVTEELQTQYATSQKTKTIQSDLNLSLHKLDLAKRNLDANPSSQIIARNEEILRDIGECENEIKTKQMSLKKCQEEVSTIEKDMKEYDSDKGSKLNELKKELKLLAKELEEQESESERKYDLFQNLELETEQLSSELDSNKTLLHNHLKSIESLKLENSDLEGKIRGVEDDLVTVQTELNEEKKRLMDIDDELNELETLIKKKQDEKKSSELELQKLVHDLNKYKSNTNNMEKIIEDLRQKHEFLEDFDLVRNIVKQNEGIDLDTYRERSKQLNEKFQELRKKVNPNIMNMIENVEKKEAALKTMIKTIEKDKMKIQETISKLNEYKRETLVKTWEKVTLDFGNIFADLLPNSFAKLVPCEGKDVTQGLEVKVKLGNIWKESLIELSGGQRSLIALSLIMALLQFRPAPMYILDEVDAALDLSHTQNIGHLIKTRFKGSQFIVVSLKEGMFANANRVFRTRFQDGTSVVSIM
Put plainly: cryo-EM structure.

B1: Ycg1 (S. cerevisiae condensin HEAT-repeat subunit) (natural protein)
chain: MQDPDGIDINTKIFNSVAEVFQKAQGSYAGHRKHIAVLKKIQSKAVEQGYEDAFNFWFDKLVTKILPLKKNEIIGDRIVKLVAAFIASLERELILAKKQNYKLTNDEEGIFSRFVDQFIRHVLRGVESPDKNVRFRVLQLLAVIMDNIGEIDESLFNLLILSLNKRIYDREPTVRIQAVFCLTKFQDEEQTEHLTELSDNEENFEATRTLVASIQNDPSAEVRRAAMLNLINDNNTRPYILERARDVNIVNRRLVYSRILKSMGRKCFDDIEPHIFDQLIEWGLEDRELSVRNACKRLIAHDWLNALDGDLIELLEKLDVSRSSVCVKAIEALFQSRPDILSKIKFPESIWKDFTVEIAFLFRAIYLYCLDNNITEMLEENFPEASKLSEHLNHYILLRYHHNDISNDSQSHFDYNTLEFIIEQLSIAAERYDYSDEVGRRSMLTVVRNMLALTTLSEPLIKIGIRVMKSLSINEKDFVTMAIEIINDIRDDDIEKQEQEEKIKSKKINRRNETSVDEEDENGTHNDEVNEDEEDDNISSFHSAVENLVQGNGNVSESDIINNLPPEKEASSATIVLCLTRSSYMLELVNTPLTENILIASLMDTLITPAVRNTAPNIRELGVKNLGLCCLLDVKLAIDNMYILGMCVSKGNASLKYIALQVIVDIFSVHGNTVVDGEGKVDSISLHKIFYKVLKNNGLPECQVIAAEGLCKLFLADVFTDDDLFETLVLSYFSPINSSNEALVQAFAFCIPVYCFSHPAHQQRMSRTAADILLRLCVLWDDLQSSVIPEVDREAMLKPNIIFQQLLFWTDPRNLVNQTGSTKKDTVQLTFLIDVLKIYAQIEKKEIKKMIITNINAIFLSSEQDYSTLKELLEYSDDIAENDNLDNVSKNALDKLRNNLNSLIEEINERSETQTKDENNTANDQYSSILGNSFNKSSNDTIEHAADITDGNNTELTKTTVNISAVDNTTEQSNSRKRTRSEAEQIDTSKNLENMSIQDTSTVAKNVSFVLPDEKSDAMSIDEEDKDSESFSEVC
Turning to B1, the binding result is recorded as “binds”.
